Results reported in article doi:10.1101/2023.06.11.543863.
Like-named read-outs stand apart in the source and are kept apart here.

What was measured:
Assay in all cases: FRET or BRET
[1] = target: E. coli ribosomal pre-translocation complex lacking an A-site tRNA (PRE^−A complex) (E. coli) (UniProt P0A7L0)
[2] = target: E. coli ribosomal pre-translocation complex lacking an A-site tRNA (PRE^−A complex) (E. coli) (UniProt P0A7L0); remark: listed apart in the source
[3] = target: E. coli ribosomal pre-translocation complex lacking an A-site tRNA (PRE^−A complex) (E. coli) (UniProt P0A7L0); remark: listed apart in the source

Chain of UniProt P0A7L0 (P0A7L0 whole entry, looked up, one chain of several): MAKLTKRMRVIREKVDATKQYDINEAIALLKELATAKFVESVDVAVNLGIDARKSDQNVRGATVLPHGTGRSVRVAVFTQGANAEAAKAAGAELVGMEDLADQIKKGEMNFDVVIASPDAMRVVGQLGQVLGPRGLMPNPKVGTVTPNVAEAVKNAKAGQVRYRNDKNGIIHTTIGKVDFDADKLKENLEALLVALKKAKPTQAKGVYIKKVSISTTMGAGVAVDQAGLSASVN

Kd [1] [µM]	Kd [2] [µM]	Kd [3] [µM]	Substance
< 6			EQ2-EttA (E. coli EttA with both catalytic glutamates changed to glutamine) (from UniProt P0A9W3 1-555) (enzyme)
< 6	1		EQ2-Uup (E. coli Uup with both catalytic glutamates changed to glutamine) (from UniProt P43672 1-635) (enzyme)
< 6			EQ2-YbiT (E. coli YbiT with both catalytic glutamates changed to glutamine) (from UniProt P0A9U3 1-530) (enzyme)
< 6		< 1	EQ2-YheS (E. coli YheS with both catalytic glutamates changed to glutamine) (from UniProt P63389 1-637) (enzyme)
